For the test, the target named is SARS-CoV-2 RBD-hFc蛋白 (SARS-CoV-2 RBD fused to a human Fc tag) (SARS-CoV-2; human).

The term Kd denotes the concentration at which binding is half-saturated. Lower therefore signals tighter binding.

B1: S43纳米抗体 (alpaca-derived nanobody S43, with C-terminal 6xHis tag) (VHH)
VHH: QVQLQESGGGLVQPGGSLRLTCAPSGFTLDYYAIGWFRQAPGKEREGVSCISSNNSTYYADSVKGRFTISRDNAKNTVYLQMNSLKPEDTAVYYCAAEPDYSGVYYYTCGWTDFGSWGQGTQVTVSS
In turn, B1 registered a Kd of 0.12 nM.

The values are drawn from patent publication CN114891097A (INST MICROBIOLOGY CAS, dated 2022).
